# The DeepSol protein solubility set
# Assay: soluble on expression in E. coli; label from the status in PepcDB or PDB records
row,Sequence,soluble on expression in E. coli
1,MEIGIIGTGNIGGTLARKLIAAGHQVRVANSKGIHGVQSFADEIGATAVDVYGAVKGADAIILSIPLPALASLPNGFFDDLPETVPLIDTSNYYPGLRDPLIPEIDDGMTESVWVSQQLSHPVIKAFNNILAWSLAELGTPKGSASRLAIAVAGDNATLKQIVMNLVDDTGFDAIDAGSLEESWRQQPSTPAYCCDYDAETMKKGLTAAVRGEAASKRDRLPELFGKLGANPTHEDIVAMNRSLNPLEHHHHHH,soluble
2,MEIGPDGKPCRACVSVEDMMKKGREMAEKIKKKESETTPSTSTGAKLHGCPVDKDELGRSTWNLLHTMSVYYPEKPTDEDKDRARSFMSILGKTYPCDFCAKDLRKDLKESPPKVESREAFALWMCQLHNKVNEKTGKPKFECRDVMQRWRDGWKDGSCDY,soluble
3,MEIINDAELIRSMQRQQHIDAELLTDANVRFEQPLEKNNYVLSEDETPCTRVNYISLDDKTVRKFSFLPSVLMKETAFKTGMCLGSNNLSRLQKAAQQILIVRGYLTSQAIIQPQNMDSGILKLRVSAGEIGDIRYEEKRDGKSAEGSISAFNNKFPLYRNKILNLRDVEQGLENLRRLPSVKTDIQIIPSEEEGKSDLQIKWQQNKPIRFSIGIDDAGGKTTGKYQGNVALSFDNPLGLSDLFYVSYGRGLAHKTDLTDATGTETESGSRSYSVHYSVPVKKWLFSFNHNGHRYHEATEGYSVNYDYNGKQYQSSLAAERMLWRNRLHKTSVGMKLWTRQTYKYIDDAEIEVQRRRSAGWEAELRHRAYLNRWQLDGKLSYKRGTGMRQSMPAPEENGGDILPGTSRMKIITASLDAAAPFILGKQQFFYATAIQAQWNKTPLVAQDKLSIGSRYTVRGFDGEQSLFGERGFYWQNTLTWYFHPNHQFYLGADYGRVSGESAQYVSGKQLMGAVVGFRGGHKVGGMFAYDLFAGKPLHKPKGFQTTNTVYGFNLNYSF,not soluble
4,MEIKEMVSLARKAQKEYQATHNQEAVDNICRAAAKVIYENAAILAREAVDETGMGVYEHKVAKNQGKSKGVWYNLHNKKSIGILNIDERTGMIEIAKPIGVVGAVTPTTNPIVTPMSNIIFALKTCNAIIIAPHPRSKKCSAHAVRLIKEAIAPFNVPEGMVQIIEEPSIEKTQELMGAVDVVVATGGMGMVKSAYSSGKPSFGVGAGNVQVIVDSNIDFEAAAEKIITGRAFDNGIICSGEQSIIYNEADKEAVFTAFRNHGAYFCDEAEGDRARAAIFENGAIAKDVVGQSVAFIAKKANINIPEGTRILVVEARGVGAEDVICKEKMCPVMCALSYKHFEEGVEIARTNLANEGNGHTCAIHSNNQAHIILAGSELTVSRIVVNAPSATTAGGHIQNGLAVTNTLGCGSWGNNSISENFTYKHLLNISRIAPLNSSIHIPDDKEIWEL,soluble
5,MEIQHLDGHIVKVQRDKVTWPGARLRKKDEGMPSLEDNNKKGMLVVTFDVEFPKTELSDEQKAQIIEILQQNTVKPKAYNGL,not soluble
6,MEIRTFLERALKEDLGHGDLFERVLEKDFKATAFVRAKQEGVFSGEKYALELLEMTGIECVQTIKDKERFKPKDALMEIRGDFSMLLKVERTLLNLLQHSSGIATLTSRFVEALNSHKVRLLDTRKTRPLLRIFEKYSVLNGGASNHRLGLDDALMLKDTHLRHVKDLKSFLTHARKNLPFTAKIEIECESFEEAKNAMNAGADIVMCDNLSVLETKEIAAYRDAHYPFVLLEASGNISLESINAYAKSGVDAISVGALIHQATFIDMHMKMA,soluble
7,MEISGEEDKEEAVTLPKEVSKISISDGNKFVYQILNGPNEQCFENFRMDKPVFYKLCDLLQTRGLLRHTNRIKIEAQLAIFLFIIGHNLRTRAVQELFCYSGETISRHFNNVLNAVIAISKDFFQPNSNSDTLENDDPYFKDCVGVVDSFHIPVMVGVDEQGPFRNGNGLLTQNVLAASSFDLRFNYVLAGWEGSASDQQVLNAALTRRNKLQVPQGKYYIVDNKYPNLPGFIAPYHGVSTNSREEAKEMFNERHKLLHRAIHRTFGALKERFPILLSAPPYPLQTQVKLVIAACALHNYVRLEKPDDLVFRMFEEETLAEAGEDREVALEEEQVEIVGQEHGFRPEEVEDSLRLRDEIASELWNHYVQNMSTF,soluble
8,MEITDPGDFRQRIETSFARQGVVQAINAEISRIEHRLVEIELPFHEKLTQQHGILHAGVIAAGLDTACTYAAYTIIEPEASLLTIEFKVNLMSPGRGERFLFRGEIIKPGNNLIVADGRAYALSDGPAKLIASMTGTMMVVKGREDITGLEHHHHHH,soluble
9,MEIYHQYIKLRKQFGRFPKFGDEGSEMLADIRPNEDHGKEYIPRNPVTTVTQCVPEMSEHEANTNAVILVNKAMSHVEGGWPKDVDYTEAEHTIRYRKKVEKDEDYIRTVVQLGSSVEDLIKQNNAVDIYQEYFTNVTMDHTSEAPHVKTVTVFKDPNNIKRSASYVNWHPDGSVPKVVVAYSILQFQQQPAGMPLSSYIWDVNNPNTPEYEMVPTSQICCAKFNLKDNNLVGAGQYNGQLAYFDVRKGNGPVEATPIDISHRDPIYDFAWLQSKTGTECMTVSTDGNVLWWDLRKMNECVENMPLKEKNSETTVGGVCLEYDTNAGPTNFMVGTEQGQIFSCNRKAKNPVDRVKYVLSGHHGPIYGLRRNPFNSKYFLSIGDWTARVWVEDTAVKTPILTTKYHPTYLTGGTWSPSRPGVFFTIKMDGAMDVWDLYYKHNEPTLTVQVSDLALTAFAVQESGGTVAVGTSDGCTSVLQLSTGLSEASPAEKANINAMFERETTREKNLEKAIKEAKVKARKEQGRRDEVKDNVTEEQLKALEDEFFKTTDPAVGGGYGAGEGAAAE,not soluble
10,MEKASSPEKWLAKVSVTLTKAKPDEIWPLFTDFFNLHKWLPTLATCHGVHGNNGEQGCIRFCSGFSIGSNGVDSAARWSKEKLVAVNPVERVMRYEIVESNTGFESYVSTVKILPRGEDGCVIEWSFTVDPVRGLSLENLVKKYEKALEIITKNMEEDALRRRESSS,soluble
11,MEKEQLIEIANTIMPFGKYKGRRLIDLPEEYLLWFARKDEFPAGKLGELMQITLLIKNEGLTQLVQPLKRPL,soluble
12,MEKFLVIAGPNAIESEELLLKVGEEIKRLSEKFKEVEFVFKSSFDKANRSSIHSFRGHGLEYGVKALRKVKEEFGLKITTDIHESWQAEPVAEVADIIQIPAFLCRQTDLLLAAAKTGRAVNVKKGQFLAPWDTKNVVEKLKFGGAKEIYLTERGTTFGYNNLVVDFRSLPIMKQWAKVIYDATHSVQLPGGLGDKSGGMREFIFPLIRAAVAVGCDGVFMETHPEPEKALSDASTQLPLSQLEGIIEAILEIREVASKYYETIPVK,soluble
13,MEKFRVIGSTQPLQGEVTISGAKNAALPILFASILAEEPVEVANVPHLRDIDTTMELLERLGAKVERNGSVHVDAGPINQYCAPYDLVKTMRASIWALGPLVARFGQGQVSLPGGCAIGARPVDLHIHGLEQLGATITLEDGYVKAHVDGRLQGAHIVMDKVSVGATITIMCAATLAEGTTVLDNAAREPEIVDTAMFLNKLGAKISGAGTDSITIEGVERLGGGKHAVVPDRIETGTFLVAAAVSRGKIVCRNTHAHLLEAVLAKLEEAGAEIECGEDWISLDMTGRELKAVTVRTAPHPGFPTDMQAQFTLLNMMAKGGGVITETIFENRFMHVPELKRMGAKAEIEGNTVICGDVDRLSGAQVMATDLRASASLVIAGCIAKGETIVDRIYHIDRGYERIEDKLSALGANIERFRD,not soluble
14,MEKGSVMSLFIYMSQSMFNFDALTPDFMWYALESIGIRAESGFLPLNSYENRVYQFTDEERRRYVVKFYRPERWSNEQIQEEHDFTLELIDSEIPVAPPVRINGNTLHHYQGYGFALFESVGGRQFEVDNLEQLEGVGRFLGRIHKVGSRQAFQHRPTIGLQEYLYQPREILQNANMIPMHLENSFFNDLDMLIKAIENHWQGSFATIRLHGDCHPGNILWRDGPMFVDLDDSRNGPAVQDLWMLLNGERQDKLMQLDIILEAYQEFCDFNAAELKLIEPLRGLRMVHYMAWLAKRWHDPAFPLAFPWFNEPKYWEGQVLAFKEQIASLEEAPLSLMPQWLEHHHHHH,not soluble
15,MEKKFPTVVTIGGRRYVKNNLNRKSEDCKMKLKEALKSFGRRVQKLQMSHCTIEKGTSLHVYKLDDARVIFTKKNKPIGFVVTGKAEEIDKSVYEKASSEINDATGKPNEPGAEERAEKDDASLID,not soluble
16,MEKLHQCYWKSGEPQSDDIEASRMKRAAAKHLIERYYHQLTEGCGNEACTNEFCASCPTFLRMDNNAAAIKALELYKINAKLCDPHPSKKGASSAYLENSKGAPNNSCSEIKMNKKGARIDFKDVTYLTEEKVYEILELCREREDYSPLIRVIGRVFSSAEAL,soluble
17,MEKLTKRQQDILDFIKLKVQEKGYPPSVREIGQAVGLASSSTVHGHLSRLEEKGYIRRDPTKPRAIEILGEDRMDTETQSVIQVPIVGKVTAGLPITAVESVEEHFPLPASIVAGADQVFMLRISGDSMIEAGIFDGDLVVVRQQQSAYNGEIVVALTEDNEATVKRFYKEKDHFRLQPENSSLEPIILKQVSVIGKVIGVYRDLH,not soluble
18,MEKMHITNQEHDAFVKSHPNGDLLQLTKWAETKKLTGWYARRIAVGRDGEVQGVAQLLFKKVPKLPYTLCYISRGFVVDYSNKEALNALLDSAKEIAKAEKAYAIKIDPDVEVDKGTDALQNLKALGFKHKGFKEGLSKDYIQPRMTMITPIDKNDDELLNSFERRNRSKVRLALKRGTTVERSDREGLKTFAELMKITGERDGFLTRDISYFENIYDALHEDGDAELFLVKLDPKENIAKVNQELNELHAEIAKWQQKMETSEKQAKKAQNMINDAQNKIAKNEDLKRDLEALEKEHPEGIYLSGALLMFAGSKSYYLYGASSNEFRDFLPNHHMQYTMMKYAREHGATTYDFGGTDNDPDKDSEHYGLWAFKKVWGTYLSEKIGEFDYILNQPLYQLIEQVKPRLTKAKIKISRKLKRK,not soluble
19,MEKNWYVVHTYSGYENKVKANLEKRVESMGMQDKIFRVVVPEETETDVKNGKRKTTKKKVFPGYVLVEMVMTDDSWYVVRNTPGVTGFVGSSGAGSKPTPLMEEEVKMILKRMGMPLAEVDVDYEVNETVRIKEGPFANFTGKIEAIDPDKHKVKLLVDMFGRETRVELEFSQIEKI,not soluble
20,MEKRGVIDTWIDKHRSIYTAATRHAFVVSIRDGSVDLSSFRTWLGQDYLFVRRFVPFVASVLIRACKDSGESSDMEVVLGGIASLNDEIEWFKREGSKWDVDFSTVVPQRANQEYGRFLEDLMSSEVKYPVIMTAFWAIEAVYQESFAHCLEDGNKTPVELTGACHRWGNDGFKQYCSSVKNIAERCLENASGEVLGEAEDVLVRVLELEVAFWEMSRGGQ,soluble
21,MEKYSQVIFDKNTVEFVTVAAEFCGFLERARDMKRYDFVDTALKILPLLYLKATLLPPCEPIGEDEPETFVTEEDYELIRRAIAGVLGAKDDYLEVFLPDMVYSDTPIKKCISEDLADIYQDLKDFISVFQLGLNETMNDSLVVCKEHFREFWGQRLVNTMRALHDVKYSPADDGEEEEMEDENSLLLEHHHHHH,soluble
22,MELERIVSAALLAFVQTHLPEADLSGLDEVIFSYVLGVLEDLGPSGPSEENFDMEAFTEMMEAYVPGFAHIPRGTIGDMMQKLSGQLSDARNKENLQPQSSGVQGQVPISPEPLQRPEMLKEETRSSAAAAADTQDEATGAEEELLPGVDVLLEVFPTCSVEQAQWVLAKARGDLEEAVQMLVEGKEEGPAAWEGPNQDLPRRLRGPQKDELKSFILQKYMMVDSA,soluble
